{"source": "patent US20150258192A1", "about": "“COMPOSITIONS AND METHODS FOR PREVENTING OR TREATING CHRONIC LUNG ALLOGRAFT DYSFUNCTION (CLAD) AND IDIOPATHIC PULMONARY FIBROSIS (IPF)” (priority 2014, published 2015)", "test_in_all_cases": "Kinase Profiling Assay", "format_in_all_cases": "biochemical", "settings_in_all_cases": "peptide 100 μM", "key": {"[1]": {"molecular_target": "CaMKIIδ(h) (Homo sapiens, UniProt Q13557)", "sequence (Q13557 whole entry)": "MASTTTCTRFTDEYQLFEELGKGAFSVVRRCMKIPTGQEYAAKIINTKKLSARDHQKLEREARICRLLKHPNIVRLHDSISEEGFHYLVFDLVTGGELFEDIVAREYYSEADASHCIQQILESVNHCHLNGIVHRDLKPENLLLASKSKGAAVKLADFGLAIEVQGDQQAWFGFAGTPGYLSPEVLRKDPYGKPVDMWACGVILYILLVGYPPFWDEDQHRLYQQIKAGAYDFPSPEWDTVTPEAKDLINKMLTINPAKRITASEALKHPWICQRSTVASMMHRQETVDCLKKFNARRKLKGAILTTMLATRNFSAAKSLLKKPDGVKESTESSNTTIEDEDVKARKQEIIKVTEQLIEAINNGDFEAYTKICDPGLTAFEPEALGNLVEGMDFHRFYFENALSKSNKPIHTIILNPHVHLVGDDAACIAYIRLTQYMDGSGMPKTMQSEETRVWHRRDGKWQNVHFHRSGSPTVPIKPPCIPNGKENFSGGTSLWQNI", "procedure,_shortened": "(§1)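 Activity remaining relative to an uninhibited control was determined by scintillation counting of labeled substrate bound to a negatively charged filter. Radiolabeled phosphate came from ATP; the substrate carried positive charge. Duplicate measurements, within a 266-kinase human panel.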"}, "[2]": {"molecular_target": "PKBα(h) (Homo sapiens, UniProt P31749)", "sequence (P31749 whole entry)": "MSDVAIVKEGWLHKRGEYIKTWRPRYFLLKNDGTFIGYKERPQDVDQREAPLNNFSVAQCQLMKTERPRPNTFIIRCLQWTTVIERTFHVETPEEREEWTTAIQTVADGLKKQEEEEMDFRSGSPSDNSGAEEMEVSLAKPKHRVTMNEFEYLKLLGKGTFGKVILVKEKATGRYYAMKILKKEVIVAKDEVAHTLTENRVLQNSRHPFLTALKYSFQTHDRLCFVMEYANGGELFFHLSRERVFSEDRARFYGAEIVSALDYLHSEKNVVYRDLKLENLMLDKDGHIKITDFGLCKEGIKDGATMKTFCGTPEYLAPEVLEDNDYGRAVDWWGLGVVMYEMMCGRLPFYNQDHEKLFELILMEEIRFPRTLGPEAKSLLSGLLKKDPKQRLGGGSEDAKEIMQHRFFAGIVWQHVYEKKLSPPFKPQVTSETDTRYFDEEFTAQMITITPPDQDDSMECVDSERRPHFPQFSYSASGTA", "procedure,_shortened": "as §1"}, "[3]": {"molecular_target": "CDK5/p25(h) (Homo sapiens, UniProt Q00535)", "sequence (Q00535 whole entry)": "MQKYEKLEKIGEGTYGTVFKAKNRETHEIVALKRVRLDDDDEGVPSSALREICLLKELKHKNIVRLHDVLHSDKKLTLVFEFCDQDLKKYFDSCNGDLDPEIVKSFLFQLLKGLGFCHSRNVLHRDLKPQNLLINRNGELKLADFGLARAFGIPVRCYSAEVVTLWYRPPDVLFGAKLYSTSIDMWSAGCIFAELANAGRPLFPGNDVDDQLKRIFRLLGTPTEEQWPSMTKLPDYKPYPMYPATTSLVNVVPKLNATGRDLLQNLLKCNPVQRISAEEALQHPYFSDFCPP", "sequence (Q15078 99-307 partner limits assumed)": "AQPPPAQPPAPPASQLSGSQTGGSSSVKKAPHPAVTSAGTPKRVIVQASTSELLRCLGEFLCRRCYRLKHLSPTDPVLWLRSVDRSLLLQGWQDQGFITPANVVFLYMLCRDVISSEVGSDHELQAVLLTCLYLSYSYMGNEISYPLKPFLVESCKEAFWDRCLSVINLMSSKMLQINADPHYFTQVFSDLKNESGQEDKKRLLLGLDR", "procedure,_shortened": "as §1"}, "[4]": {"molecular_target": "T1, MARK1(h) (Homo sapiens, UniProt Q9P0L2)", "T1 construct": "purchased Millipore", "procedure,_shortened": "as §1"}, "[5]": {"molecular_target": "T2, EphB1(h) (Homo sapiens, UniProt P54762)", "T2 sequence (P54762 18-984)": "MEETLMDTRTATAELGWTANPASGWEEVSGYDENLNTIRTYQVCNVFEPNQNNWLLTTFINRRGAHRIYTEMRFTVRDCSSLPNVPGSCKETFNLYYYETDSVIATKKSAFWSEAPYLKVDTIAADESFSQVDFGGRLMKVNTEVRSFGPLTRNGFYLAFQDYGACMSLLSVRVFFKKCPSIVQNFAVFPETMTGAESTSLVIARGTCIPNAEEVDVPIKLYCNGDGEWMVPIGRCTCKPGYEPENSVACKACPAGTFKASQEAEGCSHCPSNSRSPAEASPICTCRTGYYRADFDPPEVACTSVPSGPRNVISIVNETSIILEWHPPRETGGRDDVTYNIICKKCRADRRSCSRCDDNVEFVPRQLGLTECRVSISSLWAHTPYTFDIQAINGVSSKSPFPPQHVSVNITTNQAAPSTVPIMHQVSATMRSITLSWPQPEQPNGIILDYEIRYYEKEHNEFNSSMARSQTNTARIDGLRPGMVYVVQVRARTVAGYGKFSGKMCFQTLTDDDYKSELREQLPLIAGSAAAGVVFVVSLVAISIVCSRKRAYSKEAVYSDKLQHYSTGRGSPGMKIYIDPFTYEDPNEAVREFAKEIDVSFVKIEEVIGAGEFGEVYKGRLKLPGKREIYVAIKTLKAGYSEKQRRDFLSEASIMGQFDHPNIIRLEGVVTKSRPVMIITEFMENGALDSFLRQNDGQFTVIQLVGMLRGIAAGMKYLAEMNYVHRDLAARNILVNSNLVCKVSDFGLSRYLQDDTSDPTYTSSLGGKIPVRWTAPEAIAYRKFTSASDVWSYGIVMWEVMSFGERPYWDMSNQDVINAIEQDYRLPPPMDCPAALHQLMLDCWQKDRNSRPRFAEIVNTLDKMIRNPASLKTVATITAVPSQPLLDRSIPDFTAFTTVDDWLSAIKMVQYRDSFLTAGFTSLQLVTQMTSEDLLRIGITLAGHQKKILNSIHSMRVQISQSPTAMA", "procedure,_shortened": "as §1"}, "[6]": {"molecular_target": "T3, Met(Y1248H)(h) (Homo sapiens, UniProt P08581, Y1230H)", "T3 construct": "purchased Millipore", "procedure,_shortened": "as §1"}, "[7]": {"molecular_target": "ROCK-I(h) (Homo sapiens, UniProt Q13464)", "sequence (Q13464 whole entry)": "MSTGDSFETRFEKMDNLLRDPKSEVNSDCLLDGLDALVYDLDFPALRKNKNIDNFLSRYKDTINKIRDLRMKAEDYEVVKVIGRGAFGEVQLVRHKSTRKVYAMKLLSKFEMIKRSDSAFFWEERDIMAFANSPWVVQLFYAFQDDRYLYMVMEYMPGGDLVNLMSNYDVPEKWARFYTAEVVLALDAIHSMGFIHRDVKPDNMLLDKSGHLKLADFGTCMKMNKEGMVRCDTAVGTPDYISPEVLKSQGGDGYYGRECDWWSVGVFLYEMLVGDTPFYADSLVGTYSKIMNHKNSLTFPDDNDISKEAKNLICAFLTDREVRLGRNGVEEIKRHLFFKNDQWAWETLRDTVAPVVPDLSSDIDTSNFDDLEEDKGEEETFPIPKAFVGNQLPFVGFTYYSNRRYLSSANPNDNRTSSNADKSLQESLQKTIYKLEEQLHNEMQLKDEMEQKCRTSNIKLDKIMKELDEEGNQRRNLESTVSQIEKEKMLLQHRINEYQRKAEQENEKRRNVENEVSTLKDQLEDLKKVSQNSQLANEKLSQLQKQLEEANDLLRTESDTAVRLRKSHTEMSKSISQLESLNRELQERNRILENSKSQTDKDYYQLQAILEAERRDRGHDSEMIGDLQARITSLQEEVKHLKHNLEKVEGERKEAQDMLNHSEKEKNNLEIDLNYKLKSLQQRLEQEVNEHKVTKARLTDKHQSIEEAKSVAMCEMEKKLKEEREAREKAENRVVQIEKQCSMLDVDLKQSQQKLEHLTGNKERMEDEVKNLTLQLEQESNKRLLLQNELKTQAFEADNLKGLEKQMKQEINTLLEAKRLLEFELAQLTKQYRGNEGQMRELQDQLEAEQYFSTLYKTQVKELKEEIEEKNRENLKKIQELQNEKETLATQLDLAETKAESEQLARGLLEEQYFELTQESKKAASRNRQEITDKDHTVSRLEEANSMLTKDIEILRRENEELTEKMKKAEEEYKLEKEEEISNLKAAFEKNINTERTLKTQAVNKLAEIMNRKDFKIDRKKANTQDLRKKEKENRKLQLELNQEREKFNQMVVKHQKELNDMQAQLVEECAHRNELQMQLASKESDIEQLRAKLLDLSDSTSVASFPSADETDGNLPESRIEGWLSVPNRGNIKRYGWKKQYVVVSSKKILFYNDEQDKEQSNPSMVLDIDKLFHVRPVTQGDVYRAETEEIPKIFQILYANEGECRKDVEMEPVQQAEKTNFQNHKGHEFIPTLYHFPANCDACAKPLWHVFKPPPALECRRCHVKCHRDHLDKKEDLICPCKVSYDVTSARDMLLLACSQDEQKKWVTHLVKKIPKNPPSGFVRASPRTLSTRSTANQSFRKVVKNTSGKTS", "procedure,_shortened": "as §1"}, "[8]": {"molecular_target": "EphA7(h) (Homo sapiens, UniProt Q15375)", "sequence (Q15375 28-998)": "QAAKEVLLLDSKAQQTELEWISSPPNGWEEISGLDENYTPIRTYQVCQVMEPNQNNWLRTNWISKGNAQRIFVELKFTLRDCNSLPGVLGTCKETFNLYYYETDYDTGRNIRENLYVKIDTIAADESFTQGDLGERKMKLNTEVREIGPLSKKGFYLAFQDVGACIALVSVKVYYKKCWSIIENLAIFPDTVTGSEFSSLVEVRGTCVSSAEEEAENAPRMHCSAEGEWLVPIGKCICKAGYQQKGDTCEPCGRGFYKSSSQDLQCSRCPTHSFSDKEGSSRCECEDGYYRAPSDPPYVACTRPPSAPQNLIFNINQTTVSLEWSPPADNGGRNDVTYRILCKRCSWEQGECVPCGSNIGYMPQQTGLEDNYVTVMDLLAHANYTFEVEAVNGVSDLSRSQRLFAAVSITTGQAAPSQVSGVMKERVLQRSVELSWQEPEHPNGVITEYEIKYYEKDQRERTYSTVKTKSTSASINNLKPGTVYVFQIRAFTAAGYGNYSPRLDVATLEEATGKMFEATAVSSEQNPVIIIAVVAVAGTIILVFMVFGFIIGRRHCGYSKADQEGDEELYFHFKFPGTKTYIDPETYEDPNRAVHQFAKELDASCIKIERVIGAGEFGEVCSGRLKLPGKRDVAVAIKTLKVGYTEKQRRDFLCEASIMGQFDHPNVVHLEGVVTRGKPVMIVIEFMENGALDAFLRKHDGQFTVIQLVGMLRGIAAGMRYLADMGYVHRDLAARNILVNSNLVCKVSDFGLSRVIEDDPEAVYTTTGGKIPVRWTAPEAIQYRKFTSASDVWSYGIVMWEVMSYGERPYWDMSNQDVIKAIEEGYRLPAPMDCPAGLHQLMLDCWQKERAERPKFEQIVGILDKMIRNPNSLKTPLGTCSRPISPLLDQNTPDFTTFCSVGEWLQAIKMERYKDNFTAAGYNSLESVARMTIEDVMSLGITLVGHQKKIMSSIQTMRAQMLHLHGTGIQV", "procedure,_shortened": "as §1"}, "[9]": {"molecular_target": "Abl(Y253F)(h) (Homo sapiens, UniProt P00519, Y253F)", "procedure,_shortened": "as §1"}, "[10]": {"molecular_target": "T4, PKCμ(h) (Homo sapiens, UniProt Q15139)", "T4 sequence (Q15139 1-912)": "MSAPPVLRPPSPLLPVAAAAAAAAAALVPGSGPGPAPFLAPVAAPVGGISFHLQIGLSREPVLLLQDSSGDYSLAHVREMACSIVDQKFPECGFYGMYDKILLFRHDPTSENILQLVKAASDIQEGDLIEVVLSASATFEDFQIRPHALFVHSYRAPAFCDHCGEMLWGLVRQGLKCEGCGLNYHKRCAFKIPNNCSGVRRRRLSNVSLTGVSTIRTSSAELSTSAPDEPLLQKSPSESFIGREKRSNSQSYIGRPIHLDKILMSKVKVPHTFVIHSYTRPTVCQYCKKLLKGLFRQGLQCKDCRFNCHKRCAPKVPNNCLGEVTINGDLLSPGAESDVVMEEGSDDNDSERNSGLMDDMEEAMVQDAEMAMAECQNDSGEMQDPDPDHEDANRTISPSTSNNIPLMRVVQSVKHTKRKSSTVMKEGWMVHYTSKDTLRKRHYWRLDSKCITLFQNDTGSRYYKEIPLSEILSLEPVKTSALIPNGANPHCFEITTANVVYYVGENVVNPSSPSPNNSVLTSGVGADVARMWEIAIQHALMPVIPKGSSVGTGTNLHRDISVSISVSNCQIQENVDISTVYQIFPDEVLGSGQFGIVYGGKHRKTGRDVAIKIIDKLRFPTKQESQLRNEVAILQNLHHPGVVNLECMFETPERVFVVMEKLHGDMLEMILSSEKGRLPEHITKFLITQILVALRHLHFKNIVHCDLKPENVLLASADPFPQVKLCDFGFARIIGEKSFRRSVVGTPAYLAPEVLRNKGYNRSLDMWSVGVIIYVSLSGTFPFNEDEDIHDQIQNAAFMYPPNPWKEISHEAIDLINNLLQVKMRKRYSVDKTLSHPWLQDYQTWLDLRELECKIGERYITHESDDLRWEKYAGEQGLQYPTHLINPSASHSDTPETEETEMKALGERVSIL", "procedure,_shortened": "as §1"}}, "note": "No end group written: not given here.", "data": [{"sequence": "HRRIKAWLKKIKALARQLGVAA (Mammal) [MMI-0500]", "values": [{"measurement": "% activity", "setting": "[1]", "value": 1, "unit": "%"}, {"measurement": "% activity", "setting": "[2]", "value": 30, "unit": "%"}, {"measurement": "% activity", "setting": "[3]", "value": 66, "unit": "%"}, {"measurement": "% activity", "setting": "[4]", "value": 110, "unit": "%"}, {"measurement": "% activity", "setting": "[5]", "value": 37, "unit": "%"}, {"measurement": "% activity", "setting": "[6]", "value": 126, "unit": "%"}, {"measurement": "% activity", "setting": "[7]", "value": 17, "unit": "%"}, {"measurement": "% activity", "setting": "[8]", "value": 189, "unit": "%"}, {"measurement": "% activity", "setting": "[9]", "value": 29, "unit": "%"}, {"measurement": "% activity", "setting": "[10]", "value": 10, "unit": "%"}]}, {"sequence": "YARAAARQARAKALNRQLGVA (Mammal) [MMI-0200]", "values": [{"measurement": "% activity", "setting": "[1]", "value": 2, "unit": "%"}, {"measurement": "% activity", "setting": "[2]", "value": 110, "unit": "%"}, {"measurement": "% activity", "setting": "[3]", "value": 97, "unit": "%"}, {"measurement": "% activity", "setting": "[5]", "value": 95, "unit": "%"}, {"measurement": "% activity", "setting": "[6]", "value": 153, "unit": "%"}, {"measurement": "% activity", "setting": "[8]", "value": 220, "unit": "%"}, {"measurement": "% activity", "setting": "[10]", "value": 73, "unit": "%"}]}, {"sequence": "YARAAARQARAKALARQLGVAA [MMI-0100]", "values": [{"measurement": "% activity", "setting": "[5]", "value": 99, "unit": "%"}, {"measurement": "% activity", "setting": "[6]", "value": 88, "unit": "%"}, {"measurement": "% activity", "setting": "[8]", "value": 193, "unit": "%"}, {"measurement": "% activity", "setting": "[10]", "value": 79, "unit": "%"}]}, {"sequence": "FAKLAARLYRKALARQLGVAA [MMI-0300]", "values": [{"measurement": "% activity", "setting": "[1]", "value": 1, "unit": "%"}, {"measurement": "% activity", "setting": "[2]", "value": 57, "unit": "%"}, {"measurement": "% activity", "setting": "[3]", "value": 89, "unit": "%"}, {"measurement": "% activity", "setting": "[4]", "value": 132, "unit": "%"}, {"measurement": "% activity", "setting": "[5]", "value": 44, "unit": "%"}, {"measurement": "% activity", "setting": "[7]", "value": 79, "unit": "%"}, {"measurement": "% activity", "setting": "[8]", "value": 159, "unit": "%"}, {"measurement": "% activity", "setting": "[9]", "value": 86, "unit": "%"}, {"measurement": "% activity", "setting": "[10]", "value": 22, "unit": "%"}]}, {"sequence": "KAFAKLAARLYRKALARQLGVAA [MMI-0400]", "values": [{"measurement": "% activity", "setting": "[1]", "value": 2, "unit": "%"}, {"measurement": "% activity", "setting": "[2]", "value": 67, "unit": "%"}, {"measurement": "% activity", "setting": "[3]", "value": 92, "unit": "%"}, {"measurement": "% activity", "setting": "[4]", "value": 120, "unit": "%"}, {"measurement": "% activity", "setting": "[5]", "value": 58, "unit": "%"}, {"measurement": "% activity", "setting": "[6]", "value": 63, "unit": "%"}, {"measurement": "% activity", "setting": "[7]", "value": 73, "unit": "%"}, {"measurement": "% activity", "setting": "[8]", "value": 222, "unit": "%"}, {"measurement": "% activity", "setting": "[9]", "value": 78, "unit": "%"}, {"measurement": "% activity", "setting": "[10]", "value": 14, "unit": "%"}]}]}
